Measurements as given in US20110165623A1.

Tests used:
[1] = molecular target: purified recombinant mature TGFβ1 (expressed in CHO cells from the modified porcine TGFβ1 cDNA) (porcine) (UniProt P07200); test: SPR (BIAcore 3000); TGFβ1 immobilised on a CM5 chip, TβRII 150 nM to 0.6 nM as analyte; steady state, linear regression of 1/Response versus 1/C; TGFβ1 immobilised on the chip, TβRII as analyte; steady state
[2] = molecular target: purified recombinant mature TGFβ1 (expressed in CHO cells from the modified porcine TGFβ1 cDNA) (porcine) (UniProt P07200); test: surface plasmon resonance, steady state response, double reciprocal plot; x axis printed as 1/[TβRII] (µM-1), y axis 1/Binding RU

Sequence of UniProt P07200 (P07200 279-390): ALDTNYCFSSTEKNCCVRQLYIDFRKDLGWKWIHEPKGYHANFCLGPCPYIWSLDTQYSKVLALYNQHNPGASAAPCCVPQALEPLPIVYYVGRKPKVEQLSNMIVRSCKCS

Substance “TGFβ1 type II receptor (residues 22-136), refolded from inclusion bodies (from UniProt P37173 45-159)” has a Kd [1] of 0.055 µM and an intercept of the linear regression of 1/Binding RU against 1/[TβRII] [2] of 0.00102.
